Experimental data reported in PMC2908543, “Uropathogenic Escherichia coli Modulates Immune Responses and Its Curli Fimbriae Interact with the Antimicrobial Peptide LL-37” (PLoS Pathogens, 2010).
Residues, ends and D or L forms follow the SMILES beside them.

Experiments:
[1] = system: CsgA; experiment: CD spectroscopy of CsgA; design: species or system Escherichia coli; conditions: 40 µM CsgA alone, 50 mM KPi, 0.02% NaN3, pH 7.2, 60 h at 37°C
Experimental: Samples containing 40 µM CsgA in 50 mM potassium phosphate buffer (KPi) and 0.02% NaN3, pH 7.2, with and without 10 µM LL-37 were incubated for 60 h at 37°C. The samples were then assayed with a Jasco J-810 spectropolarimeter from 190 to 250 nm in a quartz cell with a 1-mm path length at 20°C. The spectrum of buffer alone and LL-37 in buffer was subtracted from the spectra for CsgA alone and for CsgA together with LL-37, respectively.

[2] = system: toll-like receptor 2; conditions: cytokine induction by Salmonella; ref [31]; cited from earlier work
Source text: In the pathogenesis of infection, curli fimbriae have previously been implicated in the attachment and invasion of host cells, interaction with host proteins and activation of the immune system, [29], [30].

[3] = target: T1, CsgA polymerization (Escherichia coli, UniProt P28307); experiment: CsgA polymerization, Thioflavin T assay, Tecan plate reader; type: biochemical; conditions: 20 µM ThT, 37°C
T1 construct: made in house; host or cells: E. coli LSR12 (C600::csg), co-expressed with CsgG
T1 sequence (P28307 21-151): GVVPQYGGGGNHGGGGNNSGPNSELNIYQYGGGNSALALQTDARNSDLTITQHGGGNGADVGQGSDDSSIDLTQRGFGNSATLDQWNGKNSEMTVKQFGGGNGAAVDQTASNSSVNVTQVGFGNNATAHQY
Experimental: (§1) CsgA-His6 and CsgG, a lipoprotein that is required for CsgA secretion, were overexpressed in LSR12 (C600::csg). The purification procedure of recombinant CsgA-His6 was performed as previously described with some modifications. The filtrate was incubated with nickel-nitrilotriacetic acid (Ni-NTA) agarose (Invitrogen) for 1 h at 4°C with shaking, centrifuged at 200×g for 5 min and transferred to a polyprep chromatography column (Bio-Rad, Hercules, CA, USA). To confirm protein identity of CsgA-His6, the isolated protein was prepared and subjected to SDS-PAGE as described below, and thereafter the protein was transferred from the gel to a polyvinylidene fluoride (PVDF) membrane (Invitrogen) at 160 mA for 60 min. The band of 15 kDa, corresponding to the molecular weight of CsgA-His6, was excised from the membrane stained with Coomassie Blue and analysed with N-terminal sequence analysis as has been described. Since it has previously been shown that CsgA-His6 has the same polymerizing properties as wild-type CsgA [59], we refer to CsgA-His6 as CsgA.
Purified recombinant monomeric CsgA (10 µM) with or without different concentrations of the peptides LL-37, sLL-37 or VIP was mixed with 20 µM of the fiber-specific fluorescent probe ThT (Sigma-Aldrich). Fluorescence was measured with a Tecan infinite M200 reader (Tecan Nordic AB, Täby, Sweden). The excitation and emission wavelength was 430 and 490 nm, respectively. Measurements were conducted at 37°C every 10 min after shaking the sample for five seconds. Background fluorescence of the peptides themselves was subtracted.

[4] = system: E. coli strain No. 12 and isogenic mutants; type: cell-based, Escherichia coli; conditions: bacteria pre-grown planktonically, curli expression suppressed (data not shown)
Experimental: For further investigation, E. coli isolate No. 12 from a child with pyelonephritis was chosen. This was a typical isolate expressing both curli and cellulose as well as type 1 fimbriae and yielding an approximately median level of biofilm as measured on microtiter plates. One-step knockout of bcsA and csgBA was carried out according to the protocol of Datsenko and Wanner with modifications, [50]. The following mutants were constructed using oligos listed in Table 1; WE1 bcsA::Cm, deficient in cellulose production; WE11 csgBA::Cm, deficient in curli production; and WE16 csgBA bscA::Cm, deficient in both cellulose and curli production. Expression of curli and cellulose in strain No. 12 was confirmed by these knockouts. Production of type 1 fimbriae under the culture conditions used for experiments was confirmed by yeast agglutination (see below).
The susceptibility of wild-type and mutant E. coli strains to synthetic LL-37 and mCRAMP (Innovagen AB, Lund, Sweden) was determined using a broth microdilution method. Briefly, bacteria were grown overnight at 37°C on LB plates with or without salt, inhibiting or promoting the formation of biofilm, respectively. Then, bacteria were suspended in PBS and diluted in LB broth without salt in a concentration of 10^5 CFU/ml. The bacterial concentration was verified by viable count after serial dilutions in PBS. Bacteria (90 µl suspension) were grown in 96-well plates in the presence of 10 µl aqueous solution of synthetic LL-37 or mCRAMP in final concentrations ranging from 0.6 µM to 20 µM in 2-fold dilutions. After 20 h, bacterial viability was measured colorimetrically by reduction of Alamar blue (BioSource International, Camarillo, CA, USA) for 1 h at 37°C [57]. The IC50 was determined as the peptide concentration that gave 50% reduction of the absorbance at 570 nm relative to bacteria grown without peptide.

[5] = target: T2, monomeric CsgA (Escherichia coli, UniProt P28307); experiment: Surface plasmon resonance, monomeric CsgA; conditions: monomeric CsgA immobilized (2000 response units), 0.1 µM peptide, 20 µl/min for 3 min, HBS-EP, Biacore 3000; binding constants not determinable
T2 construct: made in house; host or cells: E. coli LSR12 (C600::csg), co-expressed with CsgG
T2 sequence (P28307 21-151): as above
Experimental: (§2) Binding analysis of LL-37 to both monomeric and polymeric CsgA was performed with surface plasmon resonance (Biacore 3000 instrument; Biacore AB, Uppsala, Sweden). Both monomeric and polymeric CsgA was immobilized on a CM5 sensor chip (Biacore AB) surface by amine coupling. The chip surface was normalized in 70% glycerol and lanes on the chip were activated with injection of 35 µL 0.05 M N-hydroxysuccinimide (NHS)/0.2 M N-ethyl-N′-[3-dimethylamino) propyl]carbodiimide (EDC). Polymeric or monomeric CsgA (1 µM in 10 mM sodium acetate, pH 4.5) was then immobilized on the chip to 7000 response units and 2000 response units, respectively. After immobilization, the lanes were subjected to 60 µL ethanolamine (1 M, pH 8.5) to deactivate remaining activated carboxylic groups. One lane, activated and deactivated, was used as negative control (without addition of CsgA). Standard Biacore HBS-EP (Biacore AB) was utilized as running buffer, and 0.1 µM LL-37, sLL-37 or VIP were injected at 20 µl/min for 3 min. The surface was regenerated after each cycle with 100 mM HCl.

[6] = target: T3, polymeric CsgA (Escherichia coli, UniProt P28307); experiment: Surface plasmon resonance, polymeric CsgA; conditions: polymeric CsgA immobilized (7000 response units), 0.1 µM peptide, 20 µl/min for 3 min, HBS-EP, Biacore 3000; binding constants not determinable
T3 construct: made in house; host or cells: E. coli LSR12 (C600::csg), co-expressed with CsgG
T3 sequence (P28307 21-151): as above
Experimental: as §2

[7] = system: curli-mediated biofilm formation by E. coli; experiment: Effect on formation of biofilm, crystal violet microtiter plate; type: cell-based, Escherichia coli
Experimental: To measure the ability of the bacteria to adhere and to form biofilm a crystal violet assay in polystyrene microtiter plates (Costar, Corning, NY, USA) was performed. Bacteria were grown in Luria-Bertani (LB) broth without salt for 24 h at 37°C without shaking. Biofilm was then stained with crystal violet (3%). The dye was solubilized with ethanol (95%) and the optical density was measured at 570 nm.
Plates were filled with 90 µL bacterial culture of planktonic cells and 10 µL of aqueous solution of LL-37 in the same concentrations as in the susceptibility assay. As control peptides, sLL-37 (Innovagen AB) and VIP [27] with similar structural properties as LL-37 were utilized. The plates were incubated without shaking at 37°C for 20 h. After incubation, the amount of biofilm formed was determined as described above.

[8] = system: CsgA fiber formation; experiment: CsgA fiber formation, Thioflavin T, confocal microscopy; type: biochemical, Escherichia coli; conditions: CsgA with equimolar peptide (1∶1), 20 µM ThT, 20 h at 37°C; CsgA alone = 1 arbitrary unit; corrected for peptide fluorescence; two experiments
Experimental: as §1
Recombinant monomeric CsgA was mixed with equimolar LL-37, sLL-37 or VIP and 20 µM ThT, and incubated over night at 37°C, washed twice, and suspended in 10 mM Kpi, pH 7.2 before mounting in ProLong Gold antifade mounting medium (Invitrogen). Images were acquired on a Leica TCS SP5 confocal microscope using a 20× objective. Fluorescence intensity was quantified using ImageJ software. The difference in fluorescence intensity of CsgA with and without peptides was calculated and corrected for the contribution of fluorescence from the peptides themselves.

CsgA: major curli subunit, recombinant CsgA-His6
solubility of polymeric CsgA (from CD signal amplitude) [1]: decreased solubility due to polymerization | binding to toll-like receptor 2 [2]: binding of CsgA to toll-like receptor 2 | time to stationary phase of CsgA polymerization ([3]; 10 µM CsgA alone): approximately 300 min

CC[C@H](C)[C@H](NC(=O)[C@H](CCCCN)NC(=O)[C@H](CCC(=O)O)NC(=O)CNC(=O)CNC(=O)[C@H](CCCCN)NC(=O)[C@H](CCCNC(=N)N)NC(=O)[C@H](CC(C)C)NC(=O)[C@H](CC(C)C)NC(=O)CN)C(=O)NCC(=O)N[C@@H](CCC(=O)O)C(=O)N[C@@H](CCCCN)C(=O)N[C@@H](CC(C)C)C(=O)N[C@@H](CCCCN)C(=O)N[C@@H](CCCCN)C(=O)N[C@H](C(=O)NCC(=O)N[C@@H](CCC(N)=O)C(=O)N[C@@H](CCCCN)C(=O)N[C@H](C(=O)N[C@@H](CCCCN)C(=O)N[C@@H](CC(N)=O)C(=O)N[C@@H](Cc1ccccc1)C(=O)N[C@@H](Cc1ccccc1)C(=O)N[C@@H](CCC(N)=O)C(=O)N[C@@H](CCCCN)C(=O)N[C@@H](CC(C)C)C(=O)N[C@H](C(=O)N1CCC[C@H]1C(=O)N[C@@H](CCC(N)=O)C(=O)N1CCC[C@H]1C(=O)N[C@@H](CCC(=O)O)C(=O)N[C@@H](CCC(N)=O)C(=O)O)C(C)C)[C@@H](C)CC)[C@@H](C)CC [mCRAMP] (H-GLLRKGGEKIGEKLKKIGQKIKNFFQKLVPQPEQ-OH; N-terminus and C-terminus assumed)
difference in resistance between the strains [4]: no significant difference in the resistance

vasoactive intestinal peptide [VIP]
binding / association and dissociation by SPR [5]: faster dissociation rates than LL-37, indicating a weaker binding to CsgA | binding / association and dissociation by SPR [6]: faster dissociation rates than LL-37, indicating a weaker binding to CsgA | reduction of biofilm formation ([7]; 2.5 µM peptide, cellulose-negative, curli-expressing E. coli strain, 37°C, 20 h, two experiments in triplicates): 10% | biofilm reduction compared with the effect of LL-37 ([7]; 2.5 µM, P = 0.001, t-test): significantly lower reduction than the effect of LL-37 | fluorescence relative to CsgA alone [8]: approximately 0.2 arbitrary units | inhibition of CsgA polymerization (ThT fluorescence) ([3]; 10 µM CsgA with different concentrations of peptide): less pronounced effect on CsgA polymerization than LL-37
